According to article PMC3526264, “The C-terminus of Dpb2 is required for interaction with Pol2 and for cell viability” (Nucleic Acids Research, 2012):

Target: T1, Pol2 (S. cerevisiae, UniProt P21951 1-2222)
T1 construct: Pol2, catalytic subunit of DNA polymerase epsilon, S. cerevisiae; over-expression vector pJL1; also called catalytic subunit of DNA polymerase ε; source: S. cerevisiae pY116, galactose-induced over-expression (pJL1), co-expressed with the other Pol ε subunits
Experiment: co-purification (ion-exchange and size-exclusion chromatography); Pol2, Dpb2-201, Dpb3 and Dpb4 co-over-expressed in S. cerevisiae pY116; Pol ε purification protocol as in ref. 23; Coomassie-stained 10% SDS-PAGE, band intensities measured
Conditions: partners not purified

T1 sequence (P21951 whole entry): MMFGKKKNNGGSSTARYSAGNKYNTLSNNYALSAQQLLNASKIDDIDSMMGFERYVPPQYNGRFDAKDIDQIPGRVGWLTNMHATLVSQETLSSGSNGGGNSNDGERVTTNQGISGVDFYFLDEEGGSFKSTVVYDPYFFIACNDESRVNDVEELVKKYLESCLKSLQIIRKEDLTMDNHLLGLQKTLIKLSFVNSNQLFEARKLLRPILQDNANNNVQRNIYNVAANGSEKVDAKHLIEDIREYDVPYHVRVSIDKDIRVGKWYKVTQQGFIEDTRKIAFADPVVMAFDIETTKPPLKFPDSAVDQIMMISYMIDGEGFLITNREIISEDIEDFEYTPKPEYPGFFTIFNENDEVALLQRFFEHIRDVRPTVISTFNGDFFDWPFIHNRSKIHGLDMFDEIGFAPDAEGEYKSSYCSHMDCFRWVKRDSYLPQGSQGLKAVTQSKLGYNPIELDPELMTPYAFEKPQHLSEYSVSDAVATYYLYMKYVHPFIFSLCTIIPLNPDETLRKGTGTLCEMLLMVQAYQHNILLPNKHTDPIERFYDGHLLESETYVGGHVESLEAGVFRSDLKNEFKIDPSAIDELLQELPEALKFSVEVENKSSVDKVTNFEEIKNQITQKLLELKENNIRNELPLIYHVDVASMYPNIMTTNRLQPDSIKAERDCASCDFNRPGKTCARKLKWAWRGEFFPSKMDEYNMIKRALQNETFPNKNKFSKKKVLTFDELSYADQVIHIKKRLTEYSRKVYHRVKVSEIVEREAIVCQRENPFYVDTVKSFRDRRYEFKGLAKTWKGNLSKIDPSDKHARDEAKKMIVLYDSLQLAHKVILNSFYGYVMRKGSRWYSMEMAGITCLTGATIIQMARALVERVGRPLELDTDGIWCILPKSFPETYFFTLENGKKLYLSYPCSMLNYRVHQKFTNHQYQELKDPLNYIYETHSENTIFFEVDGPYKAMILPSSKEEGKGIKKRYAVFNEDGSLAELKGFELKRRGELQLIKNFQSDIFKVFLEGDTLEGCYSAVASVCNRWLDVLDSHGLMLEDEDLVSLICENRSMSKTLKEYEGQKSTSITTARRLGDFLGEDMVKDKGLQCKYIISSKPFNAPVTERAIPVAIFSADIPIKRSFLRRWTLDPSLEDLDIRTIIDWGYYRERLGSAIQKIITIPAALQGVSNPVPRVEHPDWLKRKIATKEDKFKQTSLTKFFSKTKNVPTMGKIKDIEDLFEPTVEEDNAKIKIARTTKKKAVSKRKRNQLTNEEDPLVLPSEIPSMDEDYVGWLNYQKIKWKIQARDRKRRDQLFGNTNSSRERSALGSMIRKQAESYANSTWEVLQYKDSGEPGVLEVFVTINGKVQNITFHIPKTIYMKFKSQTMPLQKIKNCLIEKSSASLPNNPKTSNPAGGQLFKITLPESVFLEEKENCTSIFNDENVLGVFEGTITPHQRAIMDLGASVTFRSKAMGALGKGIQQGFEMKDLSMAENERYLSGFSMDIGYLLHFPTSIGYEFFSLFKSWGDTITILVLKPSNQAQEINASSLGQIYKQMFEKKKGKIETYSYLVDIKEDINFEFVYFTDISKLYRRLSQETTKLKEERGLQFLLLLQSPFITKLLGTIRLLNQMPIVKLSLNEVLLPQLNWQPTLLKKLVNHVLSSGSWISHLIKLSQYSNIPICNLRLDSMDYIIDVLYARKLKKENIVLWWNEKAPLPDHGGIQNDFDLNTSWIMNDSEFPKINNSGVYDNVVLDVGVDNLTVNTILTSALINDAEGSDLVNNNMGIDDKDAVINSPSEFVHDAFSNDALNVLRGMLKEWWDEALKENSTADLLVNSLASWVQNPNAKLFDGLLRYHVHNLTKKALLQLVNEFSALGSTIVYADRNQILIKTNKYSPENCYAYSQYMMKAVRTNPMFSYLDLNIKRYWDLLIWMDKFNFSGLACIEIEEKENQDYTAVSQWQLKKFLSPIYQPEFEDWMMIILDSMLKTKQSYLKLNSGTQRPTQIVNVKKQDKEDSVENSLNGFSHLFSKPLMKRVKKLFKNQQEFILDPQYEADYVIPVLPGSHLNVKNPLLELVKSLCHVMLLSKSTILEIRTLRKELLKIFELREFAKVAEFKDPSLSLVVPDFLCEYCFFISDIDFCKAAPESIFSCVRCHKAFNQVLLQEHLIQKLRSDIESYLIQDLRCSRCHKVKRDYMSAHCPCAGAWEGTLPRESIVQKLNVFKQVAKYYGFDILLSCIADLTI

Row | Binder | stoichiometry N
1 | Dpb3 (natural protein, S. cerevisiae, UniProt P27344 1-201, looked up, Dpb3, subunit of DNA polymerase epsilon, S. cerevisiae; over-expression vector pJL5 (Dpb3 and Dpb4); source: S. cerevisiae pY116, galactose-induced over-expression (pJL5), co-expressed with the other Pol ε subunits) MSNLVKEKAPVFPISKVKKIAKCDPEYVITSNVAISATAFAAELFVQNLVEESLVLAQLNSKGKTSLRLSLNSIEECVEKRDNFRFLEDAIKQLKKNSALDKKRELNMQPGRSDQEVVIEEPELHEDDGVEEEEEEDEVSEEEEPVHNEELLDDSKDQQNDKSTRSVASLLSRFQYKSALDVGEHSDSSDIEVDHTKSTDP | ~1.1 Dpb3 per Pol2
2 | Dpb4 (natural protein, S. cerevisiae, UniProt Q04603 1-196, looked up, Dpb4, subunit of DNA polymerase epsilon, S. cerevisiae; over-expression vector pJL5 (Dpb3 and Dpb4); source: S. cerevisiae pY116, galactose-induced over-expression (pJL5), co-expressed with the other Pol ε subunits) MPPKGWRKDAQGNYPTTSYIKEQENITIQDLLFPKSTIVNLAREVPQQSGKKLLINKDASLALQRGATVFVNHLLLFAREIAKSQDKKSCSVDDVLSALDHIGHSALKGPVRDKLDEYQAAVEQRKKEKLDSGEVDADGDIDMGEDKENVPVEKVKEHDEIEEQGDALQDVEESSEKKQKTESQDVETRVQNLEQT | ~1.4 Dpb4 per Pol2
